The record followed here is patent US20030087827.

The subject of data set [1] is pERTKR-MCA (pyr-Glu-Arg-Thr-Lys-Arg-methylcoumarinamide). The data set can be described thus: enzyme assay, hydrolysis of fluorogenic substrate, least squares fit (EnzFitter).
For data set [2], the system named is T1, Nona-L-arginine.
T1 sequence: RRRRRRRRR

The next data set has as its target T2, Hexa-D-arginine.
T2 chain: RRRRRR

The next data set concerns the target T3, Hexa-L-arginine.
T3 chain: RRRRRR

The target in data set [3] is T4, Nona-L-arginine.
T4 chain: RRRRRRRRR

In data set [4] the target is pERTKR-MCA (pyr-Glu-Arg-Thr-Lys-Arg-methylcoumarinamide). The data set can be described thus: enzyme assay, hydrolysis of fluorogenic substrate, least squares fit (EnzFitter). The source holds these as a separate data set.

Like-named read-outs stand apart in the source and are kept apart here.

B1: proprotein convertase PC1 (enzyme, UniProt P29120 111-753, looked up, species assumed)
Neuroendocrine convertase 1: SALRDSALNLFNDPMWNQQWYLQDTRMTAALPKLDLHVIPVWQKGITGKGVVITVLDDGLEWNHTDIYANYDPEASYDFNDNDHDPFPRYDPTNENKHGTRCAGEIAMQANNHKCGVGVAYNSKVGGIRMLDGIVTDAIEASSIGFNPGHVDIYSASWGPNDDGKTVEGPGRLAQKAFEYGVKQGRQGKGSIFVWASGNGGRQGDNCDCDGYTDSIYTISISSASQQGLSPWYAEKCSSTLATSYSSGDYTDQRITSADLHNDCTETHTGTSASAPLAAGIFALALEANPNLTWRDMQHLVVWTSEYDPLANNPGWKKNGAGLMVNSRFGFGLLNAKALVDLADPRTWRSVPEKKECVVKDNDFEPRALKANGEVIIEIPTRACEGQENAIKSLEHVQFEATIEYSRRGDLHVTLTSAAGTSTVLLAERERDTSPNGFKNWDFMSVHTWGENPIGTWTLRITDMSGRIQNEGRIVNWKLILHGTSSQPEHMKQPRVYTSYNTVQNDRRGVEKMVDPGEEQPTQENPKENTLVSKSPSSSSVGGRRDELEEGAPSQAMLRLLQSAFSKNSPPKQSPKKSPSAKLNIPYENFYEALEKLNKPSQLKDSEDSLYNDYVDVFYNTKPYKHRDDRLLQALVDILNEEN
As to B1, in data set [1], the Km entry was “The Kms of PC1, PC2, furin, and PACE4 were determined as 11, 42, 8, and 15 µM, respectively”.

B2: proprotein convertase PC2 (enzyme, UniProt P16519 110-638, looked up, species assumed)
Neuroendocrine convertase 2: GYRDINEIDINMNDPLFTKQWYLINTGQADGTPGLDLNVAEAWELGYTGKGVTIGIMDDGIDYLHPDLASNYNAEASYDFSSNDPYPYPRYTDDWFNSHGTRCAGEVSAAANNNICGVGVAYNSKVAGIRMLDQPFMTDIIEASSISHMPQLIDIYSASWGPTDNGKTVDGPRELTLQAMADGVNKGRGGKGSIYVWASGDGGSYDDCNCDGYASSMWTISINSAINDGRTALYDESCSSTLASTFSNGRKRNPEAGVATTDLYGNCTLRHSGTSAAAPEAAGVFALALEANLGLTWRDMQHLTVLTSKRNQLHDEVHQWRRNGVGLEFNHLFGYGVLDAGAMVKMAKDWKTVPERFHCVGGSVQDPEKIPSTGKLVLTLTTDACEGKENFVRYLEHVQAVITVNATRRGDLNINMTSPMGTKSILLSRRPRDDDSKVGFDKWPFMTTHTWGEDARGTWTLELGFVGSAPQKGVLKEWTLMLHGTQSAPYIDQVVRDYQSKLAMSKKEELEEELDEAVERSLKSILNKN
In the case of B2, the “cleavage of the peptide by PC2 (HPLC)” value in the data set with Nona-L-arginine [2] is on record as “essentially no cleavage was observed after 24 h of incubation (results not shown)”. The Km result in data set [1] was “The Kms of PC1, PC2, furin, and PACE4 were determined as 11, 42, 8, and 15 µM, respectively”.

B3: proprotein convertase PACE4 (enzyme, UniProt P29122 150-969, looked up, species assumed)
Proprotein convertase subtilisin/kexin type 6: QVRSDPQALYFNDPIWSNMWYLHCGDKNSRCRSEMNVQAAWKRGYTGKNVVVTILDDGIERNHPDLAPNYDSYASYDVNGNDYDPSPRYDASNENKHGTRCAGEVAASANNSYCIVGIAYNAKIGGIRMLDGDVTDVVEAKSLGIRPNYIDIYSASWGPDDDGKTVDGPGRLAKQAFEYGIKKGRQGLGSIFVWASGNGGREGDYCSCDGYTNSIYTISVSSATENGYKPWYLEECASTLATTYSSGAFYERKIVTTDLRQRCTDGHTGTSVSAPMVAGIIALALEANSQLTWRDVQHLLVKTSRPAHLKASDWKVNGAGHKVSHFYGFGLVDAEALVVEAKKWTAVPSQHMCVAASDKRPRSIPLVQVLRTTALTSACAEHSDQRVVYLEHVVVRTSISHPRRGDLQIYLVSPSGTKSQLLAKRLLDLSNEGFTNWEFMTVHCWGEKAEGQWTLEIQDLPSQVRNPEKQGKLKEWSLILYGTAEHPYHTFSAHQSRSRMLELSAPELEPPKAALSPSQVEVPEDEEDYTAQSTPGSANILQTSVCHPECGDKGCDGPNADQCLNCVHFSLGSVKTSRKCVSVCPLGYFGDTAARRCRRCHKGCETCSSRAATQCLSCRRGFYHHQEMNTCVTLCPAGFYADESQKNCLKCHPSCKKCVDEPEKCTVCKEGFSLARGSCIPDCEPGTYFDSELIRCGECHHTCGTCVGPGREECIHCAKNFHFHDWKCVPACGEGFYPEEMPGLPHKVCRRCDENCLSCAGSSRNCSRCKTGFTQLGTSCITNHTCSNADETFCEMVKSNRLCERKLFIQFCCRTCLLAG
On to B3, for which the Km result in data set [1] is “The Kms of PC1, PC2, furin, and PACE4 were determined as 11, 42, 8, and 15 µM, respectively”.

B4: recombinant truncated mouse furin (protein)
chain: DVYQEPTDPKFPQQWYLSGVTQRDLNVKEAWAQGFTGHGIVVSILDDGIEKNHPDLAGNYDPGASFDVNDQDPDPQPRYTQMNDNRHGTRCAGEVAAVANNGVCGVGVAYNARIGGVRMLDGEVTDAVEARSLGLNPNHIHIYSASWGPEDDGKTVDGPARLAEEAFFRGVSQGRGGLGSIFVWASGNGGREHDSCNCDGYTNSIYTLSISSATQFGNVPWYSEACSSTLATTYSSGNQNEKQIVTTDLRQKCTESHTGTSASAPLAAGIIALTLEANKNLTWRDMQHLVVQTSKPAHLNADDWATNGVGRKVSHSYGYGLLDAGAMVALAQNWTTVAPQRKCIVEILVEPKDIGKRLEVRKAVTACLGEPNHITRLEHVQARLTLSYNRRGDLAIHLISPMGTRSTLLAARPHDYSADGFNDWAFMTTHSWDEDPAGEWVLEIENTSEANNYGTLTKFTLVLYGTAPEGLSTPPESSGCKTLTSSQACVVCEEGYSLHQKSCVQHCPPGFIPQVLDTHYSTENDVEIIRASVCTPCHASCATCQGPAPTDCLSCPSHASLDPVEQTCSRQSQSSRESRPQQQPPALRPEVEMEPRLQAGLASHLPE
B4: the “cleavage of the peptide by furin (HPLC)” value with Hexa-D-arginine was “essentially no cleavage was observed after 24 h of incubation (results not shown)”; with Hexa-L-arginine, “essentially no cleavage was seen after six hours incubation with furin (results not shown). After 24 hours, partial digestion of hexa-L-arginine (SEQ ID NO 14) had occurred, producing some penta-L-arginine”; in the data set with Nona-L-arginine [3], “Cleavage of nona-L-arginine (SEQ ID NO 13) was first observed ˜40 min after reaction with furin had commenced, with the appearance of hexa- and hepta-L-arginine”. Moreover, the Km result in data set [4] was “The Kms of PC1, PC2, furin, and PACE4 were determined as 11, 42, 8, and 15 µM, respectively”.
